Source: the supplement of paper PMC10598134
± gives the standard deviation.

Assay: collision cross section of modified peptide (TIMS, N2, iRT-aligned); higher = larger / more extended gas-phase ion
Summary of the method: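 On a timsTOF Pro/HT (dda-PASEF, nitrogen, ~2.4 mbar), synthetic peptide pools were analysed after a 120-min nanoflow C18 separation at 60 °C and identified in MaxQuant. Three reference ions served for 1/K0 calibration, with run-wise alignment to the median iRT peptide deviation. Collision cross section comes from the Mason-Schamp equation, using the most abundant feature per charge state averaged over 1–3 technical replicates.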

[1] = charge state: 2, modification: HexNAc (ST)
[2] = charge state: 2, modification: Biotin
[3] = charge state: 2, modification: Glutarylation
[4] = charge state: 3, modification: Glutarylation
[5] = charge state: 2, modification: Methyl (K)
[6] = charge state: 3, modification: Methyl (K)
[7] = charge state: 3, modification: Biotin
[8] = charge state: 2, modification: Malonyl
[9] = charge state: 3, modification: Trimethyl (K)
[10] = charge state: 2, modification: Succinyl
[11] = charge state: 3, modification: Succinyl
[12] = charge state: 2, modification: Propionyl

## FGVEAFSDCLR [_FGVEAFS(HexNAc (ST))DCLR_]
[1]
  collision cross section: 398.33 ± 0.63 Å²

## GGPGSTLSFVGKR [_GGPGSTLSFVGK(Biotin)R_]
[2]
  collision cross section: 397.77 Å²

## LGSASSSHGSIQESHK [_LGS(HexNAc (ST))ASSSHGSIQESHK_]
Charge state: 3, modification: HexNAc (ST)
  collision cross section: 519.96 ± 0.18 Å²

## VNIGQGSHPQKVK [_VNIGQGSHPQK(Formyl)VK_]
Charge state: 2, modification: Formyl
  collision cross section: 425.2 ± 1.4 Å²
Charge state: 3, modification: Formyl
  collision cross section: 472.74 ± 2.1 Å²

## VQGGALEDSQLVAGVAFKK [_VQGGALEDSQLVAGVAFK(GlyGly (K))K_]
Charge state: 2, modification: GlyGly (K)
  collision cross section: 504.45 ± 0.061 Å²
Charge state: 3, modification: GlyGly (K)
  collision cross section: 565.73 ± 1.7 Å²

## LQEKVESAQSEQK [_LQEK(Gluratylation)VESAQSEQK_]
[3]
  collision cross section: 421.97 ± 0.48 Å²
[4]
  collision cross section: 507.02 ± 1 Å²

## GTISAPGKVVTAAAQAK [_GTISAPGK(Gluratylation)VVTAAAQAK_]
[3]
  collision cross section: 445.81 ± 0.95 Å²
[4]
  collision cross section: 526.52 ± 1.1 Å²

## IVSGKDYNVTANSK [_IVSGK(Methyl (K))DYNVTANSK_]
[5]
  collision cross section: 411.95 ± 2 Å²
[6]
  collision cross section: 471.19 ± 3.6 Å²

## VSPASSVDSNIPSSQGYKK [_VSPASSVDSNIPSSQGYK(Biotin)K_]
[2]
  collision cross section: 474.43 Å²
[7]
  collision cross section: 539.94 ± 1.6 Å²

## LQLEIDQKK [_LQLEIDQK(Malonyl)K_]
[8]
  collision cross section: 367.76 ± 0.011 Å²

## VFSIISSEKELK [_VFSIISSEK(Trimethyl (K))ELK_]
Charge state: 2, modification: Trimethyl (K)
  collision cross section: 421.37 ± 1.1 Å²
[9]
  collision cross section: 454.68 ± 1.8 Å²

## ASDTSSETVFGKR [_ASDTSSETVFGK(Succinyl)R_]
[10]
  collision cross section: 396.57 ± 0.25 Å²
[11]
  collision cross section: 482.91 ± 3.3 Å²

## PASGAGAGAGAGKR [_PASGAGAGAGAGK(Gluratylation)R_]
[3]
  collision cross section: 357.87 ± 1.2 Å²
[4]
  collision cross section: 467.6 ± 2 Å²

## VETTVTSLKTK [_VETTVTSLK(Propionyl)TK_]
[12]
  collision cross section: 382.91 ± 0.92 Å²

## LLEEEDSKLK [_LLEEEDSK(Propionyl)LK_]
[12]
  collision cross section: 383.32 ± 0.94 Å²

## YEQEHAAIQDKLFQVAK [_YEQEHAAIQDK(Dimethyl (K))LFQVAK_]
Charge state: 3, modification: Dimethyl (K)
  collision cross section: 556.37 ± 0.79 Å²

## RFGGPVHHQAQR [_R(Citrullination (R))FGGPVHHQAQR_]
Charge state: 2, modification: Citrullination (R)
  collision cross section: 387.08 ± 0.89 Å²
Charge state: 3, modification: Citrullination (R)
  collision cross section: 477.19 ± 0.94 Å²

## IISSIEQKEENK [_IISSIEQK(Succinyl)EENK_]
[10]
  collision cross section: 408.03 ± 0.55 Å²
[11]
  collision cross section: 479.06 ± 2.5 Å²

## PGPQPSAETTR [_PGP(Hydroxyproline)QPSAETTR_]
Charge state: 2, modification: Hydroxyproline
  collision cross section: 345.87 ± 0.25 Å²

## DTGEKLTVAENEAETK [_DTGEK(hydroxyisobutyryl)LTVAENEAETK_]
Charge state: 2, modification: hydroxyisobutyryl
  collision cross section: 449.65 ± 0.82 Å²
Charge state: 3, modification: hydroxyisobutyryl
  collision cross section: 520.27 ± 2.8 Å²

## TQSFSLQER [_T(HexNAc (ST))QSFSLQER_]
[1]
  collision cross section: 373.04 ± 0.83 Å²

## ILDLKTGTVK [_ILDLK(Malonyl)TGTVK_]
[8]
  collision cross section: 359.66 ± 0.75 Å²

## DLSTVEALQNLKNLK [_DLSTVEALQNLK(Methyl (K))NLK_]
[5]
  collision cross section: 475.78 ± 3.5 Å²
[6]
  collision cross section: 545.72 ± 1.2 Å²

## SLGEPAAGEGSAKR [_SLGEPAAGEGSAK(Gluratylation)R_]
[3]
  collision cross section: 384.54 ± 0.66 Å²
[4]
  collision cross section: 479.54 ± 1 Å²

## SLEEEGAAHSGKR [_SLEEEGAAHSGK(Trimethyl (K))R_]
[9]
  collision cross section: 465.19 ± 1.5 Å²

## GFCFITYTDEEPVKK [_GFCFITYTDEEPVK(Gluratylation)K_]
[3]
  collision cross section: 471.64 ± 1.5 Å²

## GETASKLQSEISR [_GETASK(Biotin)LQSEISR_]
[2]
  collision cross section: 422.42 ± 2 Å²
[7]
  collision cross section: 475.24 ± 0.34 Å²

## LTSLNVKYNNDK [_LTSLNVK(Gluratylation)YNNDK_]
[3]
  collision cross section: 413.21 ± 1.1 Å²

## YIGTGHADTTK [_Y(Nitro (Y))IGTGHADTTK_]
Charge state: 2, modification: Nitro (Y)
  collision cross section: 358.04 ± 1.2 Å²
Charge state: 3, modification: Nitro (Y)
  collision cross section: 452.29 ± 0.83 Å²

## FSAYIKNSNPALNDNLEK [_FSAYIK(Succinyl)NSNPALNDNLEK_]
[10]
  collision cross section: 492.09 ± 3.4 Å²
[11]
  collision cross section: 527.54 ± 2 Å²

## GEVGAGAGPGAQAGPSAKR [_GEVGAGAGPGAQAGPSAK(Methyl (K))R_]
[5]
  collision cross section: 422.57 ± 1.8 Å²
[6]
  collision cross section: 489.3 ± 3.6 Å²
